These are literature values, as cited in article PMC3929396.

Broadly, the Kd is the concentration at which binding is half-saturated.

In the data set the target is CCR5 (Homo sapiens) (UniProt P51681). Description: SPR. A general note: In SPR one partner is held on a chip, and binding of the other changes the refractive index at the surface.
Sequence of UniProt P51681 (P51681 whole entry): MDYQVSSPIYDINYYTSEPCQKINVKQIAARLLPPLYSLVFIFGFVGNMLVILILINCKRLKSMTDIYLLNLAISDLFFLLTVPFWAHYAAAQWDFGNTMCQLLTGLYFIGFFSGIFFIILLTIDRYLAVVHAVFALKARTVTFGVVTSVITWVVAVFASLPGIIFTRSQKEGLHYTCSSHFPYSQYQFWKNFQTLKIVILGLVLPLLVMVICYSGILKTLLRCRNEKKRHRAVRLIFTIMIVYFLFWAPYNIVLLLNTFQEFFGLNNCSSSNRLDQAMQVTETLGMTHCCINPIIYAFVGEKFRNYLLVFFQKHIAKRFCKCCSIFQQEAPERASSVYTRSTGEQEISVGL

Consider LukE (from UniProt O54081), for which the Kd is 39.6 nM.
